Broadly, the % inhibition is the share of the control response that was lost under treatment.

For assay [1], the target named is FITC-conjugated BAG3 recombinant protein (human) (UniProt O95817). The experiment in a line: flow cytometry, blocking of 14 nM FITC-rBAG3 binding to J774 A1 cells by 420 nM F(ab′)2; negative control. (In general: In flow cytometry, cells or beads pass a laser one at a time.)
The target in assay [2] is surface of J774 A1 macrophages (BAG3 binding partner not identified) (murine). Put plainly: flow cytometry on J774 A1 cells, 14 nM FITC-rBAG3.
Assay [3] has the same target. Put plainly: flow cytometry on J774 A1 cells.
The target is the same in assay [4]. Put plainly: flow cytometry on J774 A1 cells, negative control.
Assay [5] shares this target. Put plainly: flow cytometry competition on J774 A1 cells; 625 nM peptide, 14 nM FITC-rBAG3 as competitor.

Chain of UniProt O95817 (O95817 whole entry): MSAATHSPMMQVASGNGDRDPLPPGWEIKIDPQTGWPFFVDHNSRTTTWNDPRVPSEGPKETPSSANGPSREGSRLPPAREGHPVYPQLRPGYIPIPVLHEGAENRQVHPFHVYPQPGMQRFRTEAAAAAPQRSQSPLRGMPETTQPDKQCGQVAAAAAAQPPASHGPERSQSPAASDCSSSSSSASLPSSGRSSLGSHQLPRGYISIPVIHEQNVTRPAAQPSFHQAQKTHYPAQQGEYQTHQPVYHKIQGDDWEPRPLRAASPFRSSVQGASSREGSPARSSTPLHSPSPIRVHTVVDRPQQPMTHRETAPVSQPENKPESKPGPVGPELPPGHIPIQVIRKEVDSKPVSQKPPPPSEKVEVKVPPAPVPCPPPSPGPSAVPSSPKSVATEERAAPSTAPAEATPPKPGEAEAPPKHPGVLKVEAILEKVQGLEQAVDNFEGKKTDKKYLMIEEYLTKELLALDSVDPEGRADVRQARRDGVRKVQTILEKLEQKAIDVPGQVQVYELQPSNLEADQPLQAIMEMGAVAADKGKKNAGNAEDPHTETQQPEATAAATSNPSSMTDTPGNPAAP

For the molecule “F(ab′)2 fragments from mouse IgG (antibody)”, in assay [1], the % inhibition is 0% and the % of positive cells stood at 12.3%.

Turning to “F(ab′)2 fragments from rabbit IgG (antibody)”, in assay [1], the % inhibition was determined as 0% and the % of positive cells was found to be 14.7%.

Molecule “FITC-conjugated BAG3 recombinant protein (from UniProt O95817 1-575)” came in with a % of positive cells in assay [2] of 15.7%. Further, the % of positive cells, FITC-BSA subtracted in assay [3] is 11.1%.

Take “FITC-conjugated BSA (albumin from bovine serum) (from UniProt P02769 25-607)”: the % of positive cells in assay [4] is 4.04%.

B1: BAG3 peptide 1 (peptide)
peptide: DRDPLPPGWEIKIDPQ
Consider B1, for which, in assay [5], the % inhibition is 98.4% and the % of positive cells was 0.18%.

B2: BAG3 peptide 3 (peptide)
peptide: DKGKKNAGNAEDPHT
Turning to B2, in assay [5], the % inhibition came to 47.2% and the % of positive cells was 5.86%.

B3: BAG3 peptide 4 (peptide)
peptide: NPSSMTDTPGNPAAP
In assay [5], B3 returned a % inhibition of 93.8% and a % of positive cells of 0.68%.

B4: BAG3 peptide 2 (peptide)
peptide: SSPKSVATEERAAPS
Take B4: in assay [5], the % inhibition worked out at 89.1% and the % of positive cells is 1.21%.

For the origin of these results see patent US20150147767A1.
